How the values were obtained:
Settings in all cases: 20 nM; 72 h
[1] = system: MCF10A; experiment: 5+ nucleoli phenotype percent effect (relative to siNT 0% and siKIF11 100%); higher = more cells with five or more nucleoli
Method: (§1)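 After 72 h, cells were fixed and stained with Hoechst and anti-fibrillarin, and nucleoli per nucleus were counted with CellProfiler. Values are plate-adjusted percent effect for the one-nucleolus and 5+ nucleoli phenotypes, normalised to siNT (0%) and to the positive controls siNOL11 or siKIF11 (100%), as the mean of biological triplicates. Percent viability is the nuclei count relative to siNT.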

[2] = system: MCF10A; experiment: one-nucleolus phenotype percent effect (relative to siNT 0% and siNOL11 100%); higher = more cells with one nucleolus (ribosome biogenesis inhibition)
Method: as §1

[3] = system: MCF10A; experiment: percent viability (nuclei count relative to siNT); higher = more viable cells
Method: as §1

## CCAAAACUGCAGUUACUUUUGC [hsa-miR-548o-3p]
[1]
  5+ nucleoli phenotype percent effect: 27.5%
[2]
  one-nucleolus phenotype percent effect: -18%
[3]
  percent viability: 99.8%

## AUGUAUAAAUGUAUACACAC [hsa-miR-568]
[1]
  5+ nucleoli phenotype percent effect: 26.1%
[2]
  one-nucleolus phenotype percent effect: -26.3%
[3]
  percent viability: 178%

## AAGCCUCUGUCCCCACCCCAG [hsa-miR-6819-3p]
[1]
  5+ nucleoli phenotype percent effect: -5.25%
[2]
  one-nucleolus phenotype percent effect: -17.6%
[3]
  percent viability: 70.8%

## UGUUCAUUGGAACCCUGCGCAG [hsa-miR-6853-3p]
[1]
  5+ nucleoli phenotype percent effect: 29%
[2]
  one-nucleolus phenotype percent effect: -28.7%
[3]
  percent viability: 79.8%

## AGGACCUUCCCUGAACCAAGGA [hsa-miR-659-5p]
[1]
  5+ nucleoli phenotype percent effect: -33.7%
[2]
  one-nucleolus phenotype percent effect: 34.3%
[3]
  percent viability: 40.3%

## GUGGGCGGGGGCAGGUGUGUG [hsa-miR-1228-5p]
[1]
  5+ nucleoli phenotype percent effect: 15.3%
[2]
  one-nucleolus phenotype percent effect: -5.58%
[3]
  percent viability: 64.8%

## UGAUAUGUUUGAUAUUGGGUU [hsa-miR-190b]
[1]
  5+ nucleoli phenotype percent effect: -11.2%
[2]
  one-nucleolus phenotype percent effect: 21.8%
[3]
  percent viability: 36%

## AAAAGUAAUUGUGGUUUUUGCC [hsa-miR-548d-5p]
[1]
  5+ nucleoli phenotype percent effect: 49.4%
[2]
  one-nucleolus phenotype percent effect: -15.4%
[3]
  percent viability: 95.4%

## GUGAGUAGUGGCGCGCGGCGGC [hsa-miR-6869-5p]
[1]
  5+ nucleoli phenotype percent effect: -16.7%
[2]
  one-nucleolus phenotype percent effect: 12.6%
[3]
  percent viability: 32.4%

## UUGGCCACAAUGGGUUAGAAC [hsa-miR-588]
[1]
  5+ nucleoli phenotype percent effect: 11.2%
[2]
  one-nucleolus phenotype percent effect: 9.67%
[3]
  percent viability: 40.2%

## UCUGAGGCCUGCCUCUCCCCA [hsa-miR-4649-3p]
[1]
  5+ nucleoli phenotype percent effect: -6.15%
[2]
  one-nucleolus phenotype percent effect: 23.9%
[3]
  percent viability: 54.4%

## AGAGUUGAGUCUGGACGUCCCG [hsa-miR-219-1-3p]
[1]
  5+ nucleoli phenotype percent effect: 30.8%
[2]
  one-nucleolus phenotype percent effect: -25%
[3]
  percent viability: 88.9%

## UGUGUCCGGGAAGUGGAGGAGG [hsa-miR-4669]
[1]
  5+ nucleoli phenotype percent effect: -24.1%
[2]
  one-nucleolus phenotype percent effect: 2.82%
[3]
  percent viability: 74.6%

## GUGAGUGGGAGCCGGUGGGGCUG [hsa-miR-4758-5p]
[1]
  5+ nucleoli phenotype percent effect: 48.5%
[2]
  one-nucleolus phenotype percent effect: -17.7%
[3]
  percent viability: 107%

## UGUGAUAUCGUGCUUCCUGGGA [hsa-miR-3689f]
[1]
  5+ nucleoli phenotype percent effect: 17.5%
[2]
  one-nucleolus phenotype percent effect: -21.8%
[3]
  percent viability: 109%

## UCUGGGAGGUUGUAGCAGUGGAA [hsa-miR-3192]
[1]
  5+ nucleoli phenotype percent effect: -19.2%
[2]
  one-nucleolus phenotype percent effect: 62.5%
[3]
  percent viability: 14.6%

## UGAGGUAGUAGUUUCUU [hsa-miR-4500]
[1]
  5+ nucleoli phenotype percent effect: 43.2%
[2]
  one-nucleolus phenotype percent effect: -31.4%
[3]
  percent viability: 89.3%

## CAAAGCGCUCCCCUUUAGAGGU [hsa-miR-518b]
[1]
  5+ nucleoli phenotype percent effect: -39.6%
[2]
  one-nucleolus phenotype percent effect: 61.9%
[3]
  percent viability: 27.8%

## UGGGGCUCAGCGAGUUU [hsa-miR-4283]
[1]
  5+ nucleoli phenotype percent effect: -10.7%
[2]
  one-nucleolus phenotype percent effect: 24.3%
[3]
  percent viability: 17.3%

## GUGACUGAUACCUUGGAGGCAU [hsa-miR-4439]
[1]
  5+ nucleoli phenotype percent effect: -27.6%
[2]
  one-nucleolus phenotype percent effect: -2.03%
[3]
  percent viability: 56.4%

## UGUCUACAUUAAUGAAAAGAGC [hsa-miR-3618]
[1]
  5+ nucleoli phenotype percent effect: -1.03%
[2]
  one-nucleolus phenotype percent effect: 16.7%
[3]
  percent viability: 66.2%

## UAUAGAGAGCAGGAAGAUUAAUGU [hsa-miR-3976]
[1]
  5+ nucleoli phenotype percent effect: 31.2%
[2]
  one-nucleolus phenotype percent effect: -15.3%
[3]
  percent viability: 78.3%

## AGUAGAGAGGAAAAGUUAGGGUC [hsa-miR-6832-5p]
[1]
  5+ nucleoli phenotype percent effect: 20.4%
[2]
  one-nucleolus phenotype percent effect: -10.8%
[3]
  percent viability: 64.7%

## UCUGGUCCUGGACAGGAGGC [hsa-miR-7152-3p]
[1]
  5+ nucleoli phenotype percent effect: 18.5%
[2]
  one-nucleolus phenotype percent effect: -12.8%
[3]
  percent viability: 41.9%

## CCUCUAAAGGGAAGCGCUUUCU [hsa-miR-520f-5p]
[1]
  5+ nucleoli phenotype percent effect: 57.3%
[2]
  one-nucleolus phenotype percent effect: -26.3%
[3]
  percent viability: 119%

## UCUCAGUAAGUGGCACUCUGU [hsa-miR-4797-3p]
[1]
  5+ nucleoli phenotype percent effect: -38.9%
[2]
  one-nucleolus phenotype percent effect: 57.2%
[3]
  percent viability: 47.4%

## UUUGAGGCUACAGUGAGAUGUG [hsa-miR-1304-5p]
[1]
  5+ nucleoli phenotype percent effect: 15.4%
[2]
  one-nucleolus phenotype percent effect: 0.012%
[3]
  percent viability: 68.3%

## UCCAGUGCCCUCCUCUCC [hsa-miR-1825]
[1]
  5+ nucleoli phenotype percent effect: -2.13%
[2]
  one-nucleolus phenotype percent effect: -8.72%
[3]
  percent viability: 70.3%

## UGUCUUGCAGGCCGUCAUGCA [hsa-miR-431-5p]
[1]
  5+ nucleoli phenotype percent effect: -40.8%
[2]
  one-nucleolus phenotype percent effect: 53.9%
[3]
  percent viability: 28.5%

## AGCUACAUCUGGCUACUGGGU [hsa-miR-222-3p]
[1]
  5+ nucleoli phenotype percent effect: -9.89%
[2]
  one-nucleolus phenotype percent effect: -5.3%
[3]
  percent viability: 71.6%

## AAAGAUAGACAAUUGGCUAAAU [hsa-miR-4662a-3p]
[1]
  5+ nucleoli phenotype percent effect: 4.11%
[2]
  one-nucleolus phenotype percent effect: -23.7%
[3]
  percent viability: 83.7%

## CUUGGCACCUAGCAAGCACUCA [hsa-miR-1271-5p]
[1]
  5+ nucleoli phenotype percent effect: 68.8%
[2]
  one-nucleolus phenotype percent effect: -2.87%
[3]
  percent viability: 91.1%

## ACCACUGACCGUUGACUGUACC [hsa-miR-181a-2-3p]
[1]
  5+ nucleoli phenotype percent effect: 12.6%
[2]
  one-nucleolus phenotype percent effect: -14.1%
[3]
  percent viability: 120%

## UGGUGGGCACAGAAUCUGGACU [hsa-miR-541-3p]
[1]
  5+ nucleoli phenotype percent effect: -0.0057%
[2]
  one-nucleolus phenotype percent effect: 17.6%
[3]
  percent viability: 24.6%

## CUCAGUAGCCAGUGUAGAUCCU [hsa-miR-222-5p]
[1]
  5+ nucleoli phenotype percent effect: -14.7%
[2]
  one-nucleolus phenotype percent effect: 14%
[3]
  percent viability: 57.4%

## CUCAGUGACUCAUGUGC [hsa-miR-4276]
[1]
  5+ nucleoli phenotype percent effect: -21.3%
[2]
  one-nucleolus phenotype percent effect: 17.5%
[3]
  percent viability: 72.6%

## GAUUGAGACUAGUAGGGCUAGGC [hsa-miR-4461]
[1]
  5+ nucleoli phenotype percent effect: -3.16%
[2]
  one-nucleolus phenotype percent effect: 3.4%
[3]
  percent viability: 31.4%

## GCGACCCACUCUUGGUUUCCA [hsa-miR-551a]
[1]
  5+ nucleoli phenotype percent effect: 39.1%
[2]
  one-nucleolus phenotype percent effect: -18%
[3]
  percent viability: 81.6%

## CAAGGCCAAAGGAAGAGAACAG [hsa-miR-4753-5p]
[1]
  5+ nucleoli phenotype percent effect: -19.1%
[2]
  one-nucleolus phenotype percent effect: 2.71%
[3]
  percent viability: 31.8%

## UUCAACGGGUAUUUAUUGAGCA [hsa-miR-95]
[1]
  5+ nucleoli phenotype percent effect: 9.5%
[2]
  one-nucleolus phenotype percent effect: -0.724%
[3]
  percent viability: 69.8%

## GUGGGGGAGAGGCUGUC [hsa-miR-1275]
[1]
  5+ nucleoli phenotype percent effect: -28.2%
[2]
  one-nucleolus phenotype percent effect: 43%
[3]
  percent viability: 20.5%

## UCUAGAAAUGCAUGACCCACC [hsa-miR-6508-5p]
[1]
  5+ nucleoli phenotype percent effect: 17.2%
[2]
  one-nucleolus phenotype percent effect: -15.2%
[3]
  percent viability: 112%

## GUAGGGGAGGUUGGGCCAGGGA [hsa-miR-6824-5p]
[1]
  5+ nucleoli phenotype percent effect: 39.2%
[2]
  one-nucleolus phenotype percent effect: -25.3%
[3]
  percent viability: 78.1%

## CUAGGUAUGGUCCCAGGGAUCC [hsa-miR-331-5p]
[1]
  5+ nucleoli phenotype percent effect: 19%
[2]
  one-nucleolus phenotype percent effect: -17.6%
[3]
  percent viability: 111%

## UCACACCUGCCUCGCCCCCC [hsa-miR-1228-3p]
[1]
  5+ nucleoli phenotype percent effect: -13.8%
[2]
  one-nucleolus phenotype percent effect: 5.12%
[3]
  percent viability: 64.7%

Reference: the supplement of paper PMC10899765
